Measured values as given in PMC6380423 (mAbs, 2019).

Columns and labels:
[1] = biological target: B cell receptor (BCR) (human (endogenous in Ramos)); experiment: FRET or BRET
[2] = biological target: the molecule itself; experiment: FRET or BRET

CD19 (from UniProt P15391 20-556) (receptor)
normalized FCET at 30 min of BCR stimulation [1]: 2.6 units
normalized FCET at 30 min of BCR stimulation, with the CD47xCD19 biAb [1]: 1.5 units
normalized FCET at 1 hour of BCR stimulation [1]: 3.6 units
normalized FCET at 1 hour of BCR stimulation, with the CD47xCD19 biAb [1]: 1.9 units

B1: CD20 (receptor)
chain: MTTPRNSVNGTFPAEPMKGPIAMQSGPKPLFRRMSSLVGPTQSFFMRESKTLGAVQIMNGLFHIALGGLLMIPAGIYAPICVTVWYPLWGGIMYIISGSLLAATEKNSRKCLVKGKMIMNSLSLFAAISGMILSIMDILNIKISHFLKMESLNFIRAHTPYINIYNCEPANPSEKNSPSTQYCYSIQSLFLGILSVMLIFAFFQELVIAGIVENEWKRTCSRPKSNIVLLSAEEKKEQTIEIKEEVVGLTETSSQPKNEEDIEIIPIQEEEEEETETNFPEPPQDQESSPIENDSSP
normalized FCET (fold over baseline), with the anti-CD20 mAb rituximab [2]: 6.7 fold

B2: CD19 (receptor)
chain: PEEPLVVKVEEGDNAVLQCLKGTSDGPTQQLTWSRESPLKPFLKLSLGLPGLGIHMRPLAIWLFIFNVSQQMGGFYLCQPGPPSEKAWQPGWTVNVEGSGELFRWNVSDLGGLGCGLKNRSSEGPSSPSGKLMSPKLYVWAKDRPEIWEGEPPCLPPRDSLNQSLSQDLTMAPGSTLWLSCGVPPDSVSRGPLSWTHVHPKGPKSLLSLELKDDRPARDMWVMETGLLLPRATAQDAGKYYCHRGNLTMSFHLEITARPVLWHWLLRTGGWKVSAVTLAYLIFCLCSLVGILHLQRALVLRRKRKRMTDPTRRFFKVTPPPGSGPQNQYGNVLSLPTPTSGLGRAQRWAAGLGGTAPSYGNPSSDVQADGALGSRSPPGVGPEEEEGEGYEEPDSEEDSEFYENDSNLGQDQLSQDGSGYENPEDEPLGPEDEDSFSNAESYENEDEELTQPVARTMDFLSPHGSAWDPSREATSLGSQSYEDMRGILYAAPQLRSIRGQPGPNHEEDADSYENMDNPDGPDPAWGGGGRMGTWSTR
normalized FCET (fold over baseline), with the bivalent anti-CD19 mAb [2]: 8.2 fold
